Experimental findings from the nanobody polyreactivity screen of Harvey et al. (2022) are described below.

A short description of the data set: yeast display, Sf9 membrane polyspecificity reagent, FACS + sequencing; frameworks hold sequencing errors. The gist of the method: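 Polyreactivity labels are assigned by the sorting gate from which each nanobody was recovered. The gates were low and high (top ~1%), set on anti-HA fluorescence for expression and streptavidin fluorescence for reagent binding. Before sorting, galactose-induced (36–48 hours) yeast display cells were stained for 1 hour at 4 °C with 10% biotinylated, detergent-solubilized Sf9 membrane reagent.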
As for “QVQLVESGGGLVQAGGSLRLSCAASGRTLKTYVMGWYRQAPGKERELVAAITSGGRTYYADSVKGRFTISRDNAKNTVYVQMNSLKPEDTAVYYCNAQLYWSRSWYLFDNTSFDYWGQGTQVTVSS”, the “polyreactivity (PSR sort gate)” value is “low polyreactivity”. “QVQLVESGGGLVQAGGSLRLSCAASGRTLKYNAMGWYRQAPGKERELVAAISYSGSSTYYADSVKWRFTISRDNAKNTVYLQMNSLKPEDNAVYYCNSARPTAAYDYWGQGTQVTVSS”: the “polyreactivity (PSR sort gate)” value is given as “low polyreactivity”. Regarding “QVQLVESGGGLVQAGGSLRLSCAASGRTLKYNVMGWYRQAPGKERELVASITSRGGSTRYADSVKGRFTISRDNAKNTVYLLMNSLKPEDTAVYYCAARYTTARSSYDYWGQGTQVTVSS”, the “polyreactivity (PSR sort gate)” value is “high polyreactivity”. Take “QVQLVESGGGLVQAGGSLRLSCAASGRTLPIYAMGWYRQAPGKERELVAAISWSGASTYADSVKGRFTISRDNAKYTVYLQMNSLKPEDTAVYYCAAYYESWYSSYGYGYWGQGTQVTVSS”: the “polyreactivity (PSR sort gate)” value is given as “low polyreactivity”. Consider “QVQLVESGGGLVQAGGSLRLSCAASGRTLPPNAMGWYRQAPGKERELVAGITWSGGSTYYADSVKGRFTISRDNAKNTVYLQMNSLKPEDTAVYYCAASRSFPGYGLYYYWGQGTQVTVSS”, for which the “polyreactivity (PSR sort gate)” value is reported as “low polyreactivity”. Regarding “QVQLVESGGGLVQAGGSLRLSCAASGRTLPYYMGWYRQAPGKERELVAAITNGDSTYYADSVKGRFTISRDNAKNTVYLQMNSLKPEDTAVYYCNVVTYVKYGYWGQGTQVTVSS”, the “polyreactivity (PSR sort gate)” value is “high polyreactivity”. The value for “QVQLVESGGGLVQAGGSLRLSCAASGRTLQGYAMGWYRQAPGKERELVAAISRGGGSTYADSVKGRFTISRDNAKNTVYLQMNSLKPEDTAVYYCNKKSYYRYYWGQGTQVTVSS” was “high polyreactivity”; that for “QVQLVESGGGLVQAGGSLRLSCAASGRTLQTYVMGWYRQAPGKERELVAAITRGGGSTYYADSVKGRFTISRDNGKNTVFLQMNSLKPVDTSVYYCAASALRFNSRFSHWYIYWGQGTQVTVSS” was “high polyreactivity”. Take “QVQLVESGGGLVQAGGSLRLSCAASGRTLRGNAMGWYRQAPGKERELVAVITRRGGSTYYADSVKGRFTISRDNAKNTFYLQMNSLKPEDTAVYYCAAVPYYYKYDYWGQGTQVTVSS”: the “polyreactivity (PSR sort gate)” value was “high polyreactivity”. Take “QVQLVESGGGLVQAGGSLRLSCAASGRTLRIYAMGWYRQAPGKERELVAAITSSGRTNYADSVKGRFTISRDNAKNTVYLQMNSLKPEDTAVYYCAAVTPAVNYFRAASGYYYWGQGTQVTVSS”: the “polyreactivity (PSR sort gate)” value is “low polyreactivity”. For “QVQLVESGGGLVQAGGSLRLSCAASGRTLRRYAMGWYRQAPGKERELVAGISRNGGSTYYADSVKGRFTISRDNAKNTVYLQMNSLKPEDTAVYYCNADDKAQSDYWGQGTQVTVSS”, the “polyreactivity (PSR sort gate)” value is reported as “high polyreactivity”. “QVQLVESGGGLVQAGGSLRLSCAASGRTLRWYAMGWYRQAPGKERELVAAITWRGGSTRYADSVKGRFTISRDNAKNTVYLQMNSLKPEDTAVYYCNKYYYRTIEGDYWGQGTQVTVSS”: the “polyreactivity (PSR sort gate)” value is “high polyreactivity”. Take “QVQLVESGGGLVQAGGSLRLSCAASGRTLRWYTMGGYRQAPGEERELVAAISSSGGSTYYADSVKGRFTISRDNAKNTVYLQMNSLKPEDTAVYYCARDRRLREYDYWGQGTQVTVSS”: the “polyreactivity (PSR sort gate)” value is recorded as “low polyreactivity”. For the sequence “QVQLVESGGGLVQAGGSLRLSCAASGRTLRYYAMGRYIQAPGKERELVAIITSTGSTYYADSVKGRFTISRDNAKNTVYLQMNSLKPEDTAVYYCNRVISVSLDYLGENYWGQGTQVTVSS”, the “polyreactivity (PSR sort gate)” value was “high polyreactivity”. Turning to “QVQLVESGGGLVQAGGSLRLSCAASGRTLRYYAMGWYRQAPGKERELVAAITKSGGSTYYADSVKGRFTISRDNAKNTVYLQMNSLKPEDTAVYYCNKVTYSRAQYIGGDGYYWGLGTQVTVSS”, the “polyreactivity (PSR sort gate)” value is given as “high polyreactivity”. Consider “QVQLVESGGGLVQAGGSLRLSCAASGRTLSANAMGWYRQAPGKERELVATNSTRGGRTYYADSVKGRFTISRDNAKNTVYLQMNSLKPEDTAVYYCAVTIRAKYTLKEDYWGQGTQVTVSS”, for which the “polyreactivity (PSR sort gate)” value is given as “low polyreactivity”. The value for “QVQLVESGGGLVQAGGSLRLSCAASGRTLSGNAMGWYRPAPGKERELVATITSDGGDTYYADSVKGRFTISRDNPKNTVYLQMNILKPEDTAVYYCNADYAGPKYVGYTFRSFTMDYWGQGTQVTVSS” was “low polyreactivity”.

As for “QVQLVESGGGLVQAGGSLRLSCAASGRTLSGYVMGWYRQAPGKERELVATISNGGSTYYADSVKGRFTISRDNAKNTVYLQMNSLKPEDTAVYYCNRYWYRKHSTDPPVRYRPVGYWGQGTQVTVSS”, the “polyreactivity (PSR sort gate)” value was “high polyreactivity”. Next, “QVQLVESGGGLVQAGGSLRLSCAASGRTLSLYAMGWYRQAPGKEMELVANISNSGGSTDYADSVKGRFTISRDNAKNTVYLQMNSLKPEDTAVYYCAADANSWFTSYQVYGSEFDYWGQGTQVTVSS”: “low polyreactivity”; “QVQLVESGGGLVQAGGSLRLSCAASGRTLSVYAMGWYRQAPGKERELLAAITIRGGRTYYADSVKGRFTISRDNAKNTVYLQMNSLKPEDTAVYYCAAPPYVKMDYWGQGTQVTVSS”: “high polyreactivity”. Next, “QVQLVESGGGLVQAGGSLRLSCAASGRTLSWYAMGWYRQAPGKEREFVAAITSSGASTYYADSVKGRFTISRDNAKNTVYLQMNSLKPEDTAVYYCAAKMRGYPRRRYDYCGQGTQVTVSS”: “high polyreactivity”; “QVQLVESGGGLVQAGGSLRLSCAASGRTLSYYAMGWYRQAPGKEREFVAAINWSGGSTYYADSVKGRFTISRDNAKNTVYLQMNSLKPEDTAVYYCAAYRPYSSSEGDYWGQGTQVTVSS”: “high polyreactivity”; “QVQLVESGGGLVQAGGSLRLSCAASGRTLVINVMGWYRQAPGKERELVAAISFRSGNTYYADSVKGRFTISRDNAKNTVYLQMNSLKPEDTAVYYCAAYTYRTSTTSSYYYWGQGTQVTVSS”: “high polyreactivity”.

Regarding “QVQLVESGGGLVQAGGSLRLSCAASGRTLYGYAMGWYRQAPGKERELVARITGRDGSTDYADSVKGRFTISRDNAKNTVYLQMNSLKPEDTAVYYCNARVRFHWYRSDYWGQGTQVTVSS”, the “polyreactivity (PSR sort gate)” value is “high polyreactivity”. As to “QVQLVESGGGLVQAGGSLRLSCAASGRTLYIYAMGWYREAPGKERELVAAITNGGTTYADSVKGRFTISRDNAKNTVYLQINSLKPEDTAVYYCNADLRVSRITQYEYWGQGTQVTVSS”, the “polyreactivity (PSR sort gate)” value is on record as “low polyreactivity”. For the sequence “QVQLVESGGGLVQAGGSLRLSCAASGRTLYKYAMGWYRQAPGKERELVAAISRNGGSTYYADSVKGRFTISRDNAKNTVYLQMNSLKPEDTAVYYCNKRWGYQYLWVADYDYWGQGTQVTVSS”, the “polyreactivity (PSR sort gate)” value is on record as “high polyreactivity”.

With “QVQLVESGGGLVQAGGSLRLSCAASGRTLYLNAMRWNRQPQRKERELVAISSGGSTYYADSVKGRFTISRDNAKNTVYLQMNSLKPEDTAVYYCNADEHYHFGYVFWYAYDYWGQGTQVTVSS”, the “polyreactivity (PSR sort gate)” value is recorded as “low polyreactivity”. For the sequence “QVQLVESGGGLVQAGGSLRLSCAASGRTLYTNAMGWYRQAPGKERELVAAITSGASTNYADSVKGRFTISRDNAKNSVYLQMNSLKPEDTSVYYCASRTYHLWNARRYDYWGQGTQVTVSS”, the “polyreactivity (PSR sort gate)” value is listed as “low polyreactivity”. As for “QVQLVESGGGLVQAGGSLRLSCAASGRTLYTNAMGWYRQPPGKEREFVASISGSGGSTYYADSVKGRFTISRDNAKNTVDLQMNRLKQEDTAVYYCAADPAQTVEFGKYDYWGQGTQVTVSS”, the “polyreactivity (PSR sort gate)” value is on record as “low polyreactivity”. For “QVQLVESGGGLVQAGGSLRLSCAASGRTMAVYAMGWDRQAPGKEREVVAAISWSGGTTYYADSVKGRFTISRDNAKNTVYLQMNSLKAEDTAVYYCAADSYTEVDYWGQGTQVTVSS”, the “polyreactivity (PSR sort gate)” value is “low polyreactivity”. Consider “QVQLVESGGGLVQAGGSLRLSCAASGRTRGVNAMGWYSQAPGKERELVAAITRRGGSTSYADSVKGRFTISRDNEKNTVYLHMNSLKPEDTAVYYCAAGVIREKYYIWSDYEYDYWGQGTQVTVSS”, for which the “polyreactivity (PSR sort gate)” value was “low polyreactivity”. On to “QVQLVESGGGLVQAGGSLRLSCAASGRTSDGYARGWYRQAPGKERELVAGITEGGGDTYYADSVKGRFTISRDNAKNTVYLQMNSLKPEDTAVYYCNAVEGSRLPYDYWGQGTQVTVSS”, for which the “polyreactivity (PSR sort gate)” value is listed as “low polyreactivity”. For “QVQLVESGGGLVQAGGSLRLSCAASGRTSGNYAKGWNRQAPGKERELVAAIRYSGSSTFYAESVKGRFTISRDSAKNSVYLQMNSLKPEDTGVYYCARDIRRKGFRYDYWGQGTQVTVSS”, the “polyreactivity (PSR sort gate)” value was “high polyreactivity”. For “QVQLVESGGGLVQAGGSLRLSCAASGRTSLAYAMGWYRKATGKERELVAGITSGGNTNYADSVKGRFTISCDNAKNSVYLQMNRLKPEDTAVYYCNKKKRWQWYSESVLDELGFYSWGQGTQVTVSS”, the “polyreactivity (PSR sort gate)” value is on record as “low polyreactivity”.

As for “QVQLVESGGGLVQAGGSLRLSCAASGRTSLAYAMGWYRQAPGKERELVAAISRTGSTYYADSVKGRFTISRDNAKNTVYLQMNSLKPEDTAVYYCNAKRRPYSVRSDYWGQGTQVTVSS”, the “polyreactivity (PSR sort gate)” value is “high polyreactivity”. The value for “QVQLVESGGGLVQAGGSLRLSCAASGRTSLRNAMGWYRQAPGKEWELVATISQSGGRTHYADSVKGRFTISRENAKNTVYLQMNSLKPEDTAVYYCGAVARFSQYLYNYWGQGTQVTVSS” was “low polyreactivity”. Regarding “QVQLVESGGGLVQAGGSLRLSCAASGRTSLRYAMGWYRLAPGKDRELVAAIRYGGGSTRYADSVKGRFTISRDNAKNTVYLQMKSLKPEDTAVSYCAARYFPRIQYGRKGYDYWGQGTQVTVSA”, the “polyreactivity (PSR sort gate)” value is listed as “low polyreactivity”. As for “QVQLVESGGGLVQAGGSLRLSCAASGRTSNFNAMGWYRQATGKERELVAAINSDGSTYYADSVKGRFTISRDNAKNTVYLQMNSLKPEDTAVDYCAVRKRPHGYLAFGYWGQGTQVTVSS”, the “polyreactivity (PSR sort gate)” value was “low polyreactivity”. Regarding “QVQLVESGGGLVQAGGSLRLSCAASGRTSNGYAMGWYRQAPGKERELVAAYADSVKGRFTISRDNAKNTVYLQMNSLKPEDTAVYYCNADYYPVSRVGYVYWAYYYWGQGTQVTVSS”, the “polyreactivity (PSR sort gate)” value was “low polyreactivity”. Turning to “QVQLVESGGGLVQAGGSLRLSCAASGRTSPYYTMGWYRQAPGKERELVAASGSRTDYADSVKGRFTISRDNAKNTVYLQMNSLKPEDTAVYYCNAYRYRQSSSDKYGYWGQGTQVTVSS”, the “polyreactivity (PSR sort gate)” value is recorded as “low polyreactivity”.
